Patent publication US20090263894A1 (AbbVie / Abbott, published 2009)
Numbering of substitutions follows the chain as printed. Values belong to the binder of their own block, whether it stands above or below them.

Experiments:
[1] = molecular target: T1, NGAL rAg A119G displayed on yeast (human, UniProt P80188 21-198); test: flow cytometry, mAb titrated on yeast displaying NGAL
T1 construct: Yeast display AGA2 fusion as m5
T1 chain: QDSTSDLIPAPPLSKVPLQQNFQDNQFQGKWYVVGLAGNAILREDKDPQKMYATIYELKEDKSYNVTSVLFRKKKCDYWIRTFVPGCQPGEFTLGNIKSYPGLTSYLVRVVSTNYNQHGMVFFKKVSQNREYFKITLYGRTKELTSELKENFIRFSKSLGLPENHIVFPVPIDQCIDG
Description: (§1) The side chain of each of the NGAL rAg residues identified from the epitope selections was altered by site-directed mutagenesis to alanine to confirm the functional epitope (direct contact residues) of each NGAL mAb subclone.
(§2) The change in Gibbs free binding energy (ΔΔG_Ala-WT) was determined to assess the energetic impact of each alanine substitution for mAb binding. The change in Gibbs free binding energy upon alanine substitution was calculated using the following equation [2],
(§3) For these experiments, observed fluorescence (F) was used to solve for KD using equation [1]. The KD derived from equation [1] one was then used in equation [2] to derive the change in Gibbs free binding energy upon alanine substitution. The KD is read from the abscissa of each of the curves at the inflection point.

[2] = molecular target: T2, NGAL rAg E147A displayed on yeast (human, UniProt P80188 21-198); test: as above
T2 construct: Yeast display AGA2 fusion as m5
T2 chain: T1 chain with G119A, E147A
Description: as §1, §2, §3

[3] = molecular target: T3, NGAL rAg H118A displayed on yeast (human, UniProt P80188 21-198); test: as above
T3 construct: Yeast display AGA2 fusion as m5
T3 chain: T1 chain with H118A, G119A
Description: as §1, §2, §3

[4] = molecular target: T4, NGAL rAg S112A displayed on yeast (human, UniProt P80188 21-198); test: as above
T4 construct: Yeast display AGA2 fusion as m5
T4 chain: T1 chain with S112A, G119A
Description: as §1, §2, §3

[5] = molecular target: T5, NGAL rAg Q117A displayed on yeast (human, UniProt P80188 21-198); test: as above
T5 construct: Yeast display AGA2 fusion as m5
T5 chain: T1 chain with Q117A, G119A
Description: as §1, §2, §3

[6] = molecular target: T6, wild-type NGAL antigen displayed on yeast (AGA2 fusion) (human, UniProt P80188 21-198); test: flow cytometry titration of the mAb on yeast displaying the NGAL antigen, detection with GaM-PE, fractional binding
T6 construct: also called WT

[7] = molecular target: T7, NGAL rAg L159A displayed on yeast (human, UniProt P80188 21-198); test: flow cytometry, mAb titrated on yeast displaying NGAL
T7 construct: Yeast display AGA2 fusion as m5
T7 chain: T1 chain with G119A, L159A
Description: as §1, §2, §3

[8] = molecular target: T8, NGAL rAg G160A displayed on yeast (human, UniProt P80188 21-198); test: as above
T8 construct: Yeast display AGA2 fusion as m5
T8 chain: T1 chain with G119A, G160A
Description: as §1, §2, §3

[9] = molecular target: T9, NGAL rAg S158A displayed on yeast (human, UniProt P80188 21-198); test: as above
T9 construct: Yeast display AGA2 fusion as m5
T9 chain: T1 chain with G119A, S158A
Description: as §1, §2, §3

[10] = molecular target: T10, NGAL rAg S14A displayed on yeast (human, UniProt P80188 21-198); test: as above
T10 construct: Yeast display AGA2 fusion as m5
T10 chain: T1 chain with S14A, G119A
Description: as §1, §2, §3

- Kd [1]: 0.00783 nM
- ΔKD (KD against KD of WT) [1]: 0.97 fold
- ΔΔG Ala-WT [1]: -0.02 kcal/mol
- Kd [2]: 492 nM
- ΔKD (KD against KD of WT) [2]: 61000 fold
- ΔΔG Ala-WT [2]: 6.5 kcal/mol
- Kd [3]: 0.114 nM
- ΔKD (KD against KD of WT) [3]: 14.1 fold
- ΔΔG Ala-WT [3]: 1.56 kcal/mol
- Kd [4]: 0.0793 nM
- ΔKD (KD against KD of WT) [4]: 9.79 fold
- ΔΔG Ala-WT [4]: 1.35 kcal/mol
- Kd [5]: 0.0307 nM
- ΔKD (KD against KD of WT) [5]: 3.79 fold
- ΔΔG Ala-WT [5]: 0.79 kcal/mol
B1: anti-NGAL monoclonal antibody 1-2322-455 (antibody, V domains shown)
VH: EVQLVESGGGLVQPGGSLKLSCAASGFTFNNYYMSWVRQTPERRLEWVAYISSSGGSTYYSDSVRGRFTISRDTARNTLYLQMTSLKSEDTAMYYCARHFGDYSYFDYWGQGTTLTVSS
VL: DIQMTQSPASLSASVGETVTITCRASENFYSYLAWYQQKQGKSPQLLVYNAKTLAEGVPSRFSGSGSGTQFSLKINSLQPEDFGTYYCQHHYDIPLTFGAGTKLELKR

- EC50 (read off the curve) [6]: ~0.2 nM
- Kd [7]: 0.137 nM
- ΔKD (KD against KD of WT) [7]: 0.67 fold
- ΔΔG Ala-WT [7]: -0.23 kcal/mol
- Kd [8]: 0.164 nM
- ΔKD (KD against KD of WT) [8]: 0.8 fold
- ΔΔG Ala-WT [8]: -0.13 kcal/mol
- Kd [9]: 0.242 nM
- ΔKD (KD against KD of WT) [9]: 1.19 fold
- ΔΔG Ala-WT [9]: 0.1 kcal/mol
- Kd [10]: 0.281 nM
- ΔKD (KD against KD of WT) [10]: 1.38 fold
- ΔΔG Ala-WT [10]: 0.19 kcal/mol
B2: anti-NGAL monoclonal antibody 1-903-430 (antibody, V domains shown)
VH: KIQLVQSGPELKKPGETVKISCKASGYTFTNYGMNWVKQAPGKGLKWMGWININTGEPTYAEEFKGRFAFSLETSATTAFLQINNLKNEDTATYLCARDSYSGGFDYWGQGTIVTVSS
VL: DIVMTQSPSSLSVSAGEKVTLSCKSSQSLLISGDQKNYLAWYQQKPGQPPKLLIYGASTRDSGVPDRFTGSGSGADFTLTISSVQAEDLAVYYCQNDHSFPPTFGAGTKLELKR
